In series [1] the target is Neisseria meningitidis Cas9 (NmeCas9), full length (Neisseria meningitidis) (UniProt C9X1G5). The series is described as follows: SEC + other: quantitative SDS-PAGE against standards.
For series [2], the target named is Anti-CRISPR protein AcrIIC2. Description: AUC.
The target of another series is T1, NmeCas9 (Neisseria meningitidis, UniProt C9X1G5 1-1082).
T1 sequence: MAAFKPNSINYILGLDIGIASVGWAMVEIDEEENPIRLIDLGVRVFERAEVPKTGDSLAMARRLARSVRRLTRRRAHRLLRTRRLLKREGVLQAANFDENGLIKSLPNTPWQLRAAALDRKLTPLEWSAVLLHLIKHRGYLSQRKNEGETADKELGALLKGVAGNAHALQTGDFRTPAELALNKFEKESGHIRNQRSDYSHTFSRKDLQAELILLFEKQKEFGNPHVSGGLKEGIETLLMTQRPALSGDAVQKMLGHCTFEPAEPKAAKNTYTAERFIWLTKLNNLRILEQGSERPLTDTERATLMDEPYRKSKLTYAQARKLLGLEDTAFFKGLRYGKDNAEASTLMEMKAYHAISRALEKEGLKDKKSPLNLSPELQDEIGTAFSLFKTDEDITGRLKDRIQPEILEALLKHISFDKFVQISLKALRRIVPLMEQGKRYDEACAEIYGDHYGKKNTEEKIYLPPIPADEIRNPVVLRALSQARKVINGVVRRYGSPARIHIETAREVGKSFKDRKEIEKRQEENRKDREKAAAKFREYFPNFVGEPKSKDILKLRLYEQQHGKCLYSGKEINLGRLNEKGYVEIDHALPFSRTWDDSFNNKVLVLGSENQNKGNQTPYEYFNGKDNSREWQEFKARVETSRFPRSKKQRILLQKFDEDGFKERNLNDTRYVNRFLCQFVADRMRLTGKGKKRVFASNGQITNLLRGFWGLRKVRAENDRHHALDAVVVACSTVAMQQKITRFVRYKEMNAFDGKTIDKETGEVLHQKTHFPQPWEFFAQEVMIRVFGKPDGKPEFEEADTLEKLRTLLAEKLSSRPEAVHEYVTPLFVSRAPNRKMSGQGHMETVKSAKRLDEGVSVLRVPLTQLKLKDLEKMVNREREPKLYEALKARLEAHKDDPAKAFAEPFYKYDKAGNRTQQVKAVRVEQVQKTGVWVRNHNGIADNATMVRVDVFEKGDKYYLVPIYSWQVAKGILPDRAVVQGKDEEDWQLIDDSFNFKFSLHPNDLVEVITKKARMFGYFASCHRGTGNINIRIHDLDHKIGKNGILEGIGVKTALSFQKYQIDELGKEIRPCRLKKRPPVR
Description: DRaCALA.

Our source for the stoichiometry N (AcrIIC3 per Cas9 (printed as 2:2)), stoichiometry N and Kd values is paper PMC6750902.

The term stoichiometry N denotes a count of units in the complex or per binding partner. One may read the Kd as a measure of binding affinity in units of concentration. Higher therefore signals a looser complex.

With “Anti-CRISPR protein AcrIIC3 (natural protein)”, in series [1], the stoichiometry N (AcrIIC3 per Cas9 (printed as 2:2)) came to 1.
“Anti-CRISPR protein AcrIIC2 (natural protein)” displayed a stoichiometry N in series [2] of 2.

B1: NmeCas9 sgRNA, 94 nt (binding assay) (structured_RNA)
RNA: GGCUCCUCAGAUGUAGUAUUCAGAGUUGUAGCUCCCUUUCUGAAAAGAACCGUUGCUACAAUAAGGCCGUCUGAAAAGAUGUGCCGCAACGCUC
On to B1, for which the affinity with NmeCas9, expressed as Kd, was 1.66 nM.
